This is an account of results in paper PMC7948415.

The target in one assay is properdin (human) (UniProt P27918). Description: SPR; Biacore T100; properdin amine-coupled to a CM5 chip (5000 RU); C3b (20 μg/ml), factor B (20 μg/ml) and factor D (2 μg/ml) in HBS/MgCl2 injected at 30 μl/min for 120 s without or with SG7.AF, albicin or anophensin (Fig. 9C: 56.8 nM C3b, 107.5 nM factor B, 41.7 nM factor D, inhibitors 1 μM); dissociation at 1 μM inhibitor fitted to a double exponential decay. On the technique in general: Surface plasmon resonance follows binding to a sensor surface in real time, without labels.

The target of assay [1] is variant of anophensin with the N-terminus extended by the retention of three amino acids from the signal peptide (Anopheles stephensi) (UniProt A5HUP6). Description: crystal structure; lengthened anophensin, space group P2_(1)2_(1)2, three monomers in the asymmetric unit, SAD with a selenomethionine derivative.

Chain of properdin (human) (P27918 28-469): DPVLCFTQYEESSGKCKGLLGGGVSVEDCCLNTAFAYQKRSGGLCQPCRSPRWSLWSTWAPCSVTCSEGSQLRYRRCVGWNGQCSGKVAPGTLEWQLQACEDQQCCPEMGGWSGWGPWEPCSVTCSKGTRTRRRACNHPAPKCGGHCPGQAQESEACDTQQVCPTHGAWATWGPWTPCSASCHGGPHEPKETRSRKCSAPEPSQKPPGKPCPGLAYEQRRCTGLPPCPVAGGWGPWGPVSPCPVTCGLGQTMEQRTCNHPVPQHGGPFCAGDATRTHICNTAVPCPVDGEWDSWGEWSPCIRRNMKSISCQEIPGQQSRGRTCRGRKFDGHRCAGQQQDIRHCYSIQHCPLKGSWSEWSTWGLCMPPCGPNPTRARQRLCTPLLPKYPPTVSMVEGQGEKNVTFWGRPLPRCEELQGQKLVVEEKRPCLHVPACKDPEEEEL

In the assay with properdin (human), “SG7.AF-bound C3bBb complex (from UniProt P01024 749-1663; P01024 749-1663; P00751 260-764; C0HMB5 1-119)” came in with a koff, fast phase of a double exponential decay of 0.02 s⁻¹ and a koff, slow phase of a double exponential decay of 0.003 s⁻¹.

In the assay with properdin (human), “albicin-bound C3bBb complex (from UniProt P01024 749-1663; P01024 749-1663; P00751 260-764; A0A1Y9G8D0 27-142)” gave a koff, fast phase of a double exponential decay of 0.02 s⁻¹ and a koff, slow phase of a double exponential decay of 0.003 s⁻¹.

By stoichiometry N is commonly meant the number of molecules, sites or subunits per partner or assembly. In turn, “variant of anophensin with the N-terminus extended by the retention of three amino acids from the signal peptide (from UniProt A5HUP6 28-142) (natural protein)” registered a stoichiometry N in assay [1] of 2.
